Reference: PMC7604486

Target: mouse Rae1–Nup98^GLEBS complex (tags removed) (mouse) (UniProt Q8C570)
Assay: SEC

MHV-68 ORF10 (wild type, full-length, no tag) (natural protein)
stoichiometry N: 1
